{
  "source": "patent US20020165140A1",
  "about": "(ANGIOGENETICS SWEDEN, published 2002)",
  "binders": {"B1": {"name": "Inhibitory PAS Domain Protein (IPAS), in vitro translated (other)", "chain": "MALGLQRVRSNTELRKEKSRDAARSRRSQETEVLYQLAHTLPFARGVSAHLDKASIMRLTISYLRMHRLCAAGGKRGRATGRLLPEGPGGFRHGTHRRGRHGLPVGKCQQAPGPQSVDLCSSSLIHNPTPGTNFSLELIGHSIFDFIHPCDQEELQDALTPRPNLSKKKLEAPTERHFSLRMKSTLTSRGRTLNLKAATWKVLHCSGHMRAYKPPAQTSPAGSPRSEPPLQCLVLICEAIPQLPFHDGATLGLPQEKTPISTLFTPLWKALLCLVKRWPVQVLQGKGTESSLPSWVLWALNRKNCPG", "modifications": "35S-labeled methionine (in the coprecipitation assay)", "notes": "Polypeptide of 307 amino acids; generated by in vitro translation in rabbit reticulocyte lysate; also called mouse IPAS; mIPAS"}},
  "key": {"GAL4-HIF-1α/526-826": {"molecular_target": "T1, GAL4-HIF-1α/526-826 (UniProt P04386 1-147; Q16665 526-826)", "T1 construct": "In vitro translated", "experiment": "coimmunoprecipitation of 35S-IPAS with anti-GAL4 antibody, in vitro translated proteins", "experimental": "(§1) Precipitated fraction was analyzed by SDS PAGE and results were obtained by autoradiography.\n(§2) After brief centrifugation, coimmunoprecipitated proteins were analyzed by SDS-PAGE."}, "GAL4 DBD": {"molecular_target": "T2, GAL4 DBD (UniProt P04386 1-147, limits assumed)", "T2 construct": "Control in the coprecipitation assay", "experiment": "coimmunoprecipitation of 35S-IPAS with anti-GAL4 antibody, in vitro translated proteins", "experimental": "as §1, §2"}},
  "data": [
    {"binder": "B1", "values": [
      {"measurement": "binding result", "setting": "GAL4-HIF-1α/526-826", "result": "no binding"},
      {"measurement": "binding result", "setting": "GAL4 DBD", "result": "no binding"}
    ]}
  ]
}
